Non-standard residues stand in square brackets, D forms with d. No end group written: not given here. *: point of attachment. Desaminotyrosyl = O=C(CCc1ccc(O)cc1)*; NMeY = CN[C@@H](Cc1ccc(O)cc1)C(=O)O; Agmatine = N=C(N)NCCCCN*; Nle = CCCC[C@H](N)C(=O)O; Orn = NCCC[C@H](N)C(=O)O; Abu = CC[C@H](N)C(=O)O; Aoc = NCCCCCCCC(=O)O
What was measured:
[1] = molecular target: GHRH receptor of human pituitary membranes (human) (UniProt Q02643); assay: competition vs 125I-[His1,Nle27]hGHRH(1-32)NH2, human pituitary membranes
[2] = molecular target: T1, GHRH receptor of human pituitary membranes (human, UniProt Q02643); assay: as above
T1 sequence: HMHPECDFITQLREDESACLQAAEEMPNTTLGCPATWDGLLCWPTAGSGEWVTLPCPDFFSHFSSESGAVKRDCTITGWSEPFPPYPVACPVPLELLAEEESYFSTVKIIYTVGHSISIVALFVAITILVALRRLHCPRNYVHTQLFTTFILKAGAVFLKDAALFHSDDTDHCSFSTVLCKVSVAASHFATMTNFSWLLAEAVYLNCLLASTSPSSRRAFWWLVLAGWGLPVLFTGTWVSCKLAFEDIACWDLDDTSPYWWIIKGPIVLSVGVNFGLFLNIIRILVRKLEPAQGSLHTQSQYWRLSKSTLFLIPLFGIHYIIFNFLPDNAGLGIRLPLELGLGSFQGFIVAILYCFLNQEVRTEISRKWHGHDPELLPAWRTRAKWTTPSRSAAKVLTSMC

[3] = molecular target: T1, GHRH receptor of human pituitary …; assay: as above; remark: listed apart in the source
[4] = molecular target: T1, GHRH receptor of human pituitary …; assay: as above; remark: listed apart in the source
From the text: Normal human pituitary was purchased from the National Hormone and Peptide Program (UCLA Medical Center, Torrance, Calif.).

[5] = molecular target: T1, GHRH receptor of human pituitary …; assay: competition vs 125I-JV-1-42, human pituitary membranes
[6] = molecular target: T1, GHRH receptor of human pituitary …; assay: as above; remark: listed apart in the source
Method: The final binding affinities were expressed as IC₅₀ values and were calculated by using the LIGAND PC computerized curve-fitting program of Munson and Rodbard as modified by McPherson.

[7] = molecular target: T2, GHRH receptor of rat pituitary cells (rat, UniProt Q02644); assay: cell-based or functional assay
T2 sequence: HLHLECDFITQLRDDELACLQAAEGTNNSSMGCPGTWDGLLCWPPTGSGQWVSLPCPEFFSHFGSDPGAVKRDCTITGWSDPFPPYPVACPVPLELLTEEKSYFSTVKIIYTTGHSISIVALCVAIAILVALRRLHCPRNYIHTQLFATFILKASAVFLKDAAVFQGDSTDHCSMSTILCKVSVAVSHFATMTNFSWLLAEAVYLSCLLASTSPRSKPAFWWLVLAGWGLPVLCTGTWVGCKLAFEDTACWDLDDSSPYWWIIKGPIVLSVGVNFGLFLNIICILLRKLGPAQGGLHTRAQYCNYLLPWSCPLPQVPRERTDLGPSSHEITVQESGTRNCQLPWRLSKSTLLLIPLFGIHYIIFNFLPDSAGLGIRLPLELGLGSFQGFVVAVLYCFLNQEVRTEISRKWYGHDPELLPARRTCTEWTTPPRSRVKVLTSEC

Molecule | IC50 [2] [nM] | relative affinity (binding potency) compared to JI-38 [4] [vs JI-38=1] | relative affinity (binding potency) compared to hGHRH(1-29) [4] | IC50 [5] [nM] | relative affinity (binding potency) vs JI-38 [5] [vs JI-38=1] | IC50 [6] [nM] | further results
JI-36 (peptide) |  |  |  |  |  |  | relative affinity (binding potency) vs GHRH (vs GHRH(1-29)=1) [1]: 3.25
JI-34 (peptide) |  |  |  |  |  |  | relative affinity (binding potency) vs GHRH (vs GHRH(1-29)=1) [1]: 4.32
[Desaminotyrosyl][dA]DAIFTQSYR[Orn]VL[Abu]QLSAR[Orn]LLQDI[Nle]DR[Aoc]-NH2 (SMILES CCCC[C@H](NC(=O)[C@@H](NC(=O)[C@H](CC(=O)O)NC(=O)[C@H](CCC(N)=O)NC(=O)[C@H](CC(C)C)NC(=O)[C@H](CC(C)C)NC(=O)[C@H](CCCN)NC(=O)[C@H](CCCNC(=N)N)NC(=O)[C@H](C)NC(=O)[C@H](CO)NC(=O)[C@H](CC(C)C)NC(=O)[C@H](CCC(N)=O)NC(=O)[C@H](CC)NC(=O)[C@H](CC(C)C)NC(=O)[C@@H](NC(=O)[C@H](CCCN)NC(=O)[C@H](CCCNC(=N)N)NC(=O)[C@H](Cc1ccc(O)cc1)NC(=O)[C@H](CO)NC(=O)[C@H](CCC(N)=O)NC(=O)[C@@H](NC(=O)[C@H](Cc1ccccc1)NC(=O)[C@@H](NC(=O)[C@H](C)NC(=O)[C@H](CC(=O)O)NC(=O)[C@@H](C)NC(=O)CCc1ccc(O)cc1)[C@@H](C)CC)[C@@H](C)O)C(C)C)[C@@H](C)CC)C(=O)N[C@@H](CC(=O)O)C(=O)N[C@@H](CCCNC(=N)N)C(=O)NCCCCCCCC(N)=O) [P-21304 [Dat^1, D-Ala^2, Gln^8, Orn^12, Abu^15, Orn^21, Nle^27, Asp^28, Amc^30]hGHRH(1-30)NH2] | 0.08 |  |  |  |  |  | relative affinity (binding potency) vs GHRH [2]: 74 vs GHRH(1-29)=1; relative affinity (binding potency) vs JI-38 [2]: 24.4 vs JI-38=1
[NMeY][dA]DAIFTQSYR[Orn]VL[Abu]QLSAR[Orn]LLQDI[Nle]DR-NHMe [P-27403 [N-Me-Tyr^1, D-Ala^2, Gln^8, Orn^12, Abu^15, Orn^21, Nle^27, Asp^28]hGHRH(1-29)NH-CH3] |  | 3.69 | 10.3 vs hGHRH(1-29)NH2=1 | 0.16 | 27.2 |  | fold enhancement of receptor binding affinity vs JI-38 [3]: ~3.7 fold vs JI-38; IC50 [4]: 0.74 nM
YADAIFTNSYRKVLGQLSARKLLQDIMSR-NH2 (ligand) [hGHRH(1-29)NH2] | 5.92 |  |  |  |  | 4.06 | 
[Desaminotyrosyl]ADAIFTQSYR[Orn]VL[Abu]QLSAR[Orn]LLQDI[Nle]D[Agmatine] (SMILES CCCC[C@H](NC(=O)[C@@H](NC(=O)[C@H](CC(=O)O)NC(=O)[C@H](CCC(N)=O)NC(=O)[C@H](CC(C)C)NC(=O)[C@H](CC(C)C)NC(=O)[C@H](CCCN)NC(=O)[C@H](CCCNC(=N)N)NC(=O)[C@H](C)NC(=O)[C@H](CO)NC(=O)[C@H](CC(C)C)NC(=O)[C@H](CCC(N)=O)NC(=O)[C@H](CC)NC(=O)[C@H](CC(C)C)NC(=O)[C@@H](NC(=O)[C@H](CCCN)NC(=O)[C@H](CCCNC(=N)N)NC(=O)[C@H](Cc1ccc(O)cc1)NC(=O)[C@H](CO)NC(=O)[C@H](CCC(N)=O)NC(=O)[C@@H](NC(=O)[C@H](Cc1ccccc1)NC(=O)[C@@H](NC(=O)[C@H](C)NC(=O)[C@H](CC(=O)O)NC(=O)[C@H](C)NC(=O)CCc1ccc(O)cc1)[C@@H](C)CC)[C@@H](C)O)C(C)C)[C@@H](C)CC)C(=O)N[C@@H](CC(=O)O)C(=O)NCCCCNC(=N)N) [JI-38 [Dat^1, Gln^8, Orn^12,21, Abu^15, Nle^27, Asp^28, Agm^29]hGHRH(1-29)NH2] | 1.95 | 1 | 2.79 vs hGHRH(1-29)NH2=1 | 4.35 | 1 | 1.71 | relative affinity (binding potency) vs GHRH [2]: 3.03 vs GHRH(1-29)=1; relative affinity (binding potency) vs JI-38 [2]: 1 vs JI-38=1; IC50 [4]: 2.74 nM; relative affinity (binding potency) vs GHRH [6]: 2.4 vs GHRH(1-29)=1; relative affinity (binding potency) vs JI-38 [6]: 1 vs JI-38=1
[NMeY]ADAIFTQSYR[Orn]VL[Abu]QLSAR[Orn]LLQDI[Nle]D[Agmatine] [P-20356 [N-Me-Tyr^1, Gln^8, Orn^12, Abu^15, Orn^21, Nle^27, Asp^28, Agm^29]hGHRH(1-29)NH2] |  | 2.69 | 7.5 vs hGHRH(1-29)NH2=1 | 0.27 | 16.1 | 0.01 | GH-releasing potency in vitro relative to JI-38, superfused rat pituitary cells [7]: ~3 fold vs JI-38; fold increase in GHRH receptor binding affinity vs JI-38 [3]: 2.7 fold vs JI-38; relative affinity (binding potency) vs GHRH [6]: 406 vs GHRH(1-29)=1; relative affinity (binding potency) vs JI-38 [6]: 171 vs JI-38=1
